Patent US6537803B1, “Amino acid transporters and uses” (Oregon Health Sciences University, priority 1993, dated 2003)

Tests used:
Conditions in all cases: other: L-stereoisomer; least squares fit of induced inward current vs substrate concentration; mean ± standard error, at least 5 determinations
[1] = substrate: CC(C)[C@H](N)C(=O)O; assay: amino acid-induced inward current in voltage-clamped ASCT1-injected Xenopus oocytes; type: cell-based, human
Protocol: (§1) 20-50 nL of ASCT1 RNA (at a concentration of about 400 μg/mL) was injected into defolliculated stage V-VI Xenopus oocytes excised from female Xenopus laevis anesthetized by immersion in 3-aminobenzoic acid for 60 min. Excised oocytes were treated with collagenase II (Sigma Chemical Co., St. Louis, Mo.) in calcium-free Barth's saline solution [comprising 88 mM NaCl, 1 mM KCl, 2.4 mM NaHCO3, 0.82 mM MgSO4, 7.5 mM Tris-HCl (pH 7.6), 50 U/mL Nystatin (Sigma) and 0.1 mg/mL gentamycin (Sigma)] for 60 min., and then incubated overnight at 15° C. in 50% Leibowitz's L-15 media (Grand Island Biological Co. (GIBCO), Long Island, N.Y.). After overnight incubation the oocytes were mechanically defolliculated and then were injected with ASCT-1 RNA and incubated at 19° C. for 48 h (see Kim el al., 1991, Nature 352: 725-728 for further details of Xenopus oocyte preparation and microinjection).
(§2) Amino acid transport in such oocytes was assayed using [^3H] alanine, [^3H] serine or [^35S] cysteine (obtained from New England Nuclear, Boston, Mass.). Briefly, microinjected oocytes were patch-lamped at −60 mV using a Dagan TEV-200 clamp amplifier with an Axon Instruments (Foster City, Calif.) TL-1 A/D interface controlled by pCLAMP software (Axon Instruments) (see Kavanaugh et al., 1992, J. Biol. Chem. 267: 22007-22009 for a detailed review of this methodology) and continuously superfused with ND-96 buffer (consisting of 96 mM NaCl/2 mM KCl/1.8 mM CaCl2/1 mM MgCl2/5 mM HEPES, pH 7.5). For transport measurements, this solution was changed to a solution containing varying concentrations of the radiolabeled amino acids in ND-96 buffer.
(§3) More detailed analyses of ithe kinetics of amino acid influx were performed by least squares linear regression analysis of induced inward current ([I]) plotted as a function of substrate amino acid concentration ([S]), using the equation shown in the legend of Table II.

[2] = substrate: N[C@@H](CO)C(=O)O; assay: as above; type: cell-based, human
Protocol: as §1, §2, §3

[3] = substrate: N[C@@H](CS)C(=O)O; assay: as above; type: cell-based, human
Protocol: as §1, §2, §3

[4] = substrate: C[C@@H](O)[C@H](N)C(=O)O; assay: cells, lysate or membranes
[5] = substrate: C[C@H](N)C(=O)O; assay: cells, lysate or membranes

B1: human ASCT1 neutral amino acid transporter (Homo sapiens) (protein)
chain: MEKSNETNGYLDSAQAGPAAGPGAPGTAAGRARRCAGFLRRQALVLLTVSGVLAGAGLGAALRGLSLSRTQVTYLAFPGEMLLRMLRMIILPLVVCSLVSGAASLDASCLGRLGGIAVAYFGLTTLSASALAVALAFIIKPGSGAQTLQSSDLGLEDSGPPPVPKETVDSFLDLARNLFPSNLVVAAFRTYATDYKVVTQNSSSGNVTHEKIPIGTEIEGMNILGLVLFALVLGVALKKLGSEGEDLIRFFNSLNEATMVLVSWIMWYVPVGIMFLVGSKIVEMKDIIVLVTSLGKYIFASILGHVIHGGIVLPLIYFVFTRKNPFRFLLGLLAPFATAFATCSSSATLPSMMKCIEENNGVDKRISRFILPIGATVNMDGAAIFQCVAAVFIAQLNNVELNAGQIFTILVTATASSVGAAGVPAGGVLTIAIILEAIGLPTHDLPLILAVDWIVDRTTTVVNVEGDALGAGILHHLNQKATKKGEQELAEVKVEAIPNCKSEEETSPLVTHQNPAGPVASAPELESKESVL
notes: expressed in transfected cells; host or cells: Xenopus laevis oocytes injected with in vitro transcribed RNA (pOTV vector)
[1]
  Km: 390 ± 8 µM
[2]
  Km: 88 ± 11 µM
[3]
  Km: 29 ± 6 µM
[4]
  Km: 137 ± 19 µM
[5]
  Km: 71 ± 14 µM
